The binders below were run against HLA-DRB1*0101 (human) (assay: inhibition of 125I-probe binding to purified HLA-DR).

Row | IC50 [µM] | Binder
1 | ≤ 1 | LLIIVLAIIAIEGDC [MAGE2.201 (15-mer)]
2 | ≤ 1 | LIIVLAIIAIEGDCA [MAGE2.202 (15-mer)]

What follows are binders tested against HLA-DRB1*0301 (human) (assay: inhibition of 125I probe peptide binding to purified HLA).

Row | relative binding ratio | Binder
3 | 0.066 IC50 standard/IC50 peptide | IIAIEGDCAPEEKIW

Each binder was assayed against HLA-A*0203 (human) (assay: competition with 125I probe peptide, purified HLA).

Row | IC50 [µM] | Binder
4 | 0.175 | KIWEELSML [MAGE2.220 9-mer KIWEELSML]
5 | 0.0059 | KLAELVHFL [MAGE3.112L2 KLAELVHFL]
6 | 0.046 | KMAELVHFV [MAGE3.112M2V9 KMAELVHFV]

Each binder was assayed against HLA-A*0202 (human) (assay: competition with 125I probe peptide, purified HLA).

Row | IC50 [µM] | Binder
7 | 0.642 | KIWEELSML [MAGE2.220 9-mer KIWEELSML]
8 | 0.729 | ALIETSYVKV [MAGE2.277 10-mer ALIETSYVKV]
9 | 0.741 | HLYIFATCLGL [MAGE3.174 11-mer HLYIFATCLGL]

These binders were tested against HLA-A*6802 (human) (assay: competition with 125I probe peptide, purified HLA).

Row | IC50 [µM] | Binder
10 | 0.4 | KLAELVHFL [MAGE3.112L2 KLAELVHFL]
11 | 0.073 | KLAELVHFV [MAGE3.112L2V9 KLAELVHFV]
12 | 3.08 | ALIETSYVKV [MAGE2.277 10-mer ALIETSYVKV]

Each binder was assayed against HLA-A*0201 (human) (assay: competition with 125I probe peptide, purified HLA).

Row | IC50 [µM] | Binder
13 | 0.056 | HLYIFATCLGL [MAGE3.174 11-mer HLYIFATCLGL]

Each binder was assayed against HLA-A*0206 (human) (assay: competition with 125I probe peptide, purified HLA).

Row | IC50 [µM] | Binder
14 | 0.039 | KMAELVHFV [MAGE3.112M2V9 KMAELVHFV]
15 | 1.95 | ALIETSYVKV [MAGE2.277 10-mer ALIETSYVKV]

These binders were tested against HLA-A*0201 (human) (assay: competition with 125I probe peptide, purified HLA, gel filtration).

Row | relative binding ratio | Binder
16 | 0.0001 ratio (IC50 standard / IC50 test peptide) | GLEARGEAL [MAGE3 peptide, position 15, 9 amino acids]

Each binder was assayed against HLA-A*0201 (human) (assay: competition with 125I-labelled probe peptide for purified HLA-A*0201).

Row | relative binding ratio [ratio] | Binder
17 | 0.0001 | GLEARGEAL [MAGE2 peptide, position 15, 9 amino acids]

Each binder was assayed against HLA-B*5301 (human) (assay: competition vs 125I probe peptide, purified HLA).

Row | Binder | IC50 [µM]
18 | FPRALIETSYI [MAGE2.274.F1I11 FPRALIETSYI] | 0.465
19 | FPRALIETSYV [MAGE2.274.F1 FPRALIETSYV] | 7.75
20 | FPKAGLLI [MAGE3.196.F1I8 FPKAGLLI] | 0.775
21 | FPKTGLLI [MAGE2.196.F1I8 FPKTGLLI] | 3.32
22 | FPIGHLYIFA [MAGE3.170.F1 FPIGHLYIFA] | 0.179

The next lines start with the values.

Row | IC50 [µM] | Binder
23 | 0.245 | FPLWSQSI [MAGE3.77.F1 FPLWSQSI]
24 | 0.039 | FPTTMNYPL [MAGE3.71.F1 FPTTMNYPL]
25 | 0.0085 | FPTTMNYPI [MAGE3.71.F1I9 FPTTMNYPI]
26 | 0.62 | FPRALVETSYI [MAGE3.274.F1I11 FPRALVETSYI]
27 | 3 | FPQGASSI [MAGE3.64.F1 FPQGASSI]
28 | 0.0085 | FPIGHLYIFI [MAGE3.170.F1I10 FPIGHLYIFI]
29 | 4.65 | FPKAGLLIIV [MAGE3.196.F1 FPKAGLLIIV]
30 | 0.846 | FPKAGLLIII [MAGE3.196.F1I10 FPKAGLLIII]
31 | 0.233 | FPHISYPPI [MAGE3.296.F1I9 FPHISYPPI]

The binders below were run against HLA-B*5401 (human) (assay: competition vs 125I probe peptide, purified HLA).

Row | Binder | IC50 [µM]
32 | FPRALIETSYI [MAGE2.274.F1I11 FPRALIETSYI] | 0.127
33 | FPKAGLLI [MAGE3.196.F1I8 FPKAGLLI] | 0.046
34 | FPIGHLYIFA [MAGE3.170.F1 FPIGHLYIFA] | 0.0004

Further lines, results first:

Row | IC50 [µM] | Binder
35 | 0.0006 | FPIGHLYII [MAGE3.170.F1I9 FPIGHLYII]
36 | 0.003 | FPTTMNYPL [MAGE3.71.F1 FPTTMNYPL]
37 | 0.0015 | FPTTMNYPI [MAGE3.71.F1I9 FPTTMNYPI]
38 | 0.059 | FPRALVETSYI [MAGE3.274.F1I11 FPRALVETSYI]
39 | 0.4 | FPQGASSI [MAGE3.64.F1 FPQGASSI]
40 | 0.0011 | FPKAGLLIIV [MAGE3.196.F1 FPKAGLLIIV]
41 | 0.0014 | FPHISYPPI [MAGE3.296.F1I9 FPHISYPPI]

Each binder was assayed against HLA-B*0702 (human) (assay: competition vs 125I probe peptide, purified HLA).

Row | Binder | IC50 [µM]
42 | FPRALIETSYI [MAGE2.274.F1I11 FPRALIETSYI] | 0.0074
43 | FPKTGLLI [MAGE2.196.F1I8 FPKTGLLI] | 0.134
44 | FPIGHLYIFA [MAGE3.170.F1 FPIGHLYIFA] | 0.039

Continued, values first:

Row | IC50 [µM] | Binder
45 | 0.122 | FPLWSQSI [MAGE3.77.F1 FPLWSQSI]
46 | 0.0064 | FPTTMNYPL [MAGE3.71.F1 FPTTMNYPL]
47 | 0.059 | FPTTMNYPI [MAGE3.71.F1I9 FPTTMNYPI]
48 | 0.22 | FPTTMNYPLW [MAGE3.71.F1 FPTTMNYPLW]
49 | 0.22 | FPKAGLLIIV [MAGE3.196.F1 FPKAGLLIIV]

These binders were tested against HLA-B*3501 (human) (assay: competition vs 125I probe peptide, purified HLA).

Row | Binder | IC50 [µM]
50 | FPRALIETSYI [MAGE2.274.F1I11 FPRALIETSYI] | 3.6
51 | FPRALIETSYV [MAGE2.274.F1 FPRALIETSYV] | 4.5
52 | FPIGHLYIFA [MAGE3.170.F1 FPIGHLYIFA] | 0.051

Continued, values first:

Row | IC50 [µM] | Binder
53 | 1.01 | FPLWSQSI [MAGE3.77.F1 FPLWSQSI]
54 | 0.0045 | FPTTMNYPL [MAGE3.71.F1 FPTTMNYPL]
55 | 4.24 | FPRALVETSYV [MAGE3.274.F1 FPRALVETSYV]
56 | 5.54 | FPRALVETSYI [MAGE3.274.F1I11 FPRALVETSYI]
57 | 0.139 | FPIGHLYIFI [MAGE3.170.F1I10 FPIGHLYIFI]
58 | 0.878 | FPKAGLLIIV [MAGE3.196.F1 FPKAGLLIIV]
59 | 0.36 | FPHISYPPI [MAGE3.296.F1I9 FPHISYPPI]

These binders were tested against HLA-B*5101 (human) (assay: competition vs 125I probe peptide, purified HLA).

Row | Binder | IC50 [µM]
60 | FPRALIETSYI [MAGE2.274.F1I11 FPRALIETSYI] | 0.07
61 | FPRALIETSYV [MAGE2.274.F1 FPRALIETSYV] | 0.128
62 | FPIGHLYIFA [MAGE3.170.F1 FPIGHLYIFA] | 0.056
63 | FPHISYPPL [MAGE2.296.F1 FPHISYPPL] | 0.177

The remaining lines, values ahead:

Row | IC50 [µM] | Binder
64 | 0.005 | FPIGHLYII [MAGE3.170.F1I9 FPIGHLYII]
65 | 0.423 | FPTTMNYPL [MAGE3.71.F1 FPTTMNYPL]
66 | 0.19 | FPKAGLLIIV [MAGE3.196.F1 FPKAGLLIIV]
67 | 0.065 | FPKAGLLIII [MAGE3.196.F1I10 FPKAGLLIII]

Target: HLA-DRB1*0301 (human)
Experiment: inhibition of 125I probe peptide binding to purified HLA
Remark: another data set of the same source

Row | relative binding ratio | Binder
68 | 0.066 IC50 standard/IC50 peptide | IIAIEGDCAPEEKIW

Source: patent publication US20040053822A1 (published 2004)
